Where a chain is given by its changes, count along the chain named. Read-outs that look alike come from different tables or passages of the source.
Columns and labels:
[1] = biological target: T1, FmhB (Staphylococcus aureus, UniProt Q2FVZ4 1-421); assay: competition
T1 sequence: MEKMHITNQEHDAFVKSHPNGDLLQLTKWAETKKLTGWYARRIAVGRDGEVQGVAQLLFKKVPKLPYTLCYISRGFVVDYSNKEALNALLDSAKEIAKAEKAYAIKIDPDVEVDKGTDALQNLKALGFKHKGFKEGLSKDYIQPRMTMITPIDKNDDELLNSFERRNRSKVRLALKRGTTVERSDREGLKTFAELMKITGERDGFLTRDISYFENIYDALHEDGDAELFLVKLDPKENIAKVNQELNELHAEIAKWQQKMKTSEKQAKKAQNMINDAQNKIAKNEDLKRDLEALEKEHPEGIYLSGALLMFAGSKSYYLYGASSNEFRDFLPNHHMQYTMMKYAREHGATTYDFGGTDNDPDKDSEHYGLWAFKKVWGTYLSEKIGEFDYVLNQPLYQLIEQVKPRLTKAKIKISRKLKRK

[2] = biological target: T1, FmhB; assay: competition; remark: listed apart in the source
[3] = biological target: T1, FmhB; assay: competition; remark: listed apart in the source
[4] = biological target: T1, FmhB; assay: competition; remark: listed apart in the source
[5] = biological target: EF-Tu (GTP form) (UniProt P99152 1-394); assay: competition
[6] = biological target: T1, FmhB; assay: size-exclusion chromatography

Chain of EF-Tu (GTP form) (P99152 whole entry): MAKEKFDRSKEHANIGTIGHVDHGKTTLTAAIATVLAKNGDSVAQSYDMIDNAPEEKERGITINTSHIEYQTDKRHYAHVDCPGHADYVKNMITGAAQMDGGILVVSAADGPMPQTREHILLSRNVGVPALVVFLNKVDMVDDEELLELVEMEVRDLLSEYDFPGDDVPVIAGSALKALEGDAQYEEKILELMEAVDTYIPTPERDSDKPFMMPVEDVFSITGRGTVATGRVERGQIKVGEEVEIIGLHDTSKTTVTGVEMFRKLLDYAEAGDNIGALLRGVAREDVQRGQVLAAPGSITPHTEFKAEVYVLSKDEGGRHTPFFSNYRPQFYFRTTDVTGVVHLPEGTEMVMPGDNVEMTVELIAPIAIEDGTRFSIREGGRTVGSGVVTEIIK

B1: CHIM4 analogue (P1 with NP2 anticodon stem-loop) (structured_RNA)
RNA: GCAGAAGUAGUUCAGCGGUAGAAUACGUUCCUUCCCGGAACGGGGUCGCGGGUUCGAAUCCCGUCUUCUGCUCCA
modifications: 2'-triazole-nonadiyne on terminal A; penultimate C is dC
B1 gave a Ki [1] of 220 ± 40 nM.

B2: P1_1 analogue (P1 with NP2 region 1) (structured_RNA)
RNA: GCAGAAGUAGUUCAACUUUUAGAAUACAACCUUGCCAAGGUUGGGGUGCGGGUUCGAAUCCCGUCUUCUGCUCCA
modifications: stable triazole-nonadiyne analogue (2' isomer presumed)
For B2, the binding signal [2] was 2 ± 0.3 fold reduction in Ki vs P1 analogue.

B3: CHIM3 analogue (NP2 with P1 anticodon stem-loop) (structured_RNA)
RNA: GCGGGAGUAGUUCAACUUUUAGAACACAACCUUGCCAAGGUUGAGGUAUAGGUGUAAAUCCUAUCUUCCGCUCCA
modifications: 2'-triazole-nonadiyne on terminal A; penultimate C is dC
Work on B3 yielded a Ki [1] of 5.4 ± 0.3 nM.

B4: CHIM5 analogue (NP2 with P1 anticodon stem-loop and acceptor stem) (structured_RNA)
RNA: B3 RNA with G3A, G5A, C69U
modifications: 2'-triazole-nonadiyne on terminal A; penultimate C is dC
Binder B4 has a Ki [1] of 19 ± 2 nM.

B5: NP2 stable Gly-tRNA analogue, 2' isomer (structured_RNA)
RNA: GCGGGAGUAGUUCAACUUUUAGAACACGUUCCUUCCCGGAACGAGGUAUAGGUGUAAAUCCUAUCUUCCGCUCCA
modifications: 2'-(1,4-triazole-alkyne; nonadiyne) on terminal A; penultimate C is dC (pdCpA ligation)
Binder B5 has a Ki [3] of 8.6 ± 2 nM.

B6: CHIM1 analogue (NP2 with P1 acceptor stem) (structured_RNA)
RNA: B5 RNA with G3A, G5A, U55C, C69U
modifications: 2'-triazole-nonadiyne on terminal A; penultimate C is dC
With B6 the Ki [1] was 7.6 ± 0.7 nM.

B7: NP2 stable Gly-tRNA analogue, 3' isomer (structured_RNA)
RNA: B5 RNA
modifications: 3'-(1,4-triazole-alkyne; nonadiyne) on terminal A; penultimate C is dC (pdCpA ligation)
With B7 the Ki [4] was 110 ± 6 nM.

B8: Gly-tRNAGly P1 (structured_RNA)
RNA: GCAGAAGUAGUUCAGCGGUAGAAUACAACCUUGCCAAGGUUGGGGUCGCGGGUUCGAAUCCCGUCUUCUGCUCCA
modifications: 3'-glycyl ester
For B8, the binding signal [5] was 14 ± 3 % residual FmhB activity at 4 uM EF-Tu.

B9: tRNAGly P1 (GCC-1), unacylated (structured_RNA)
RNA: B8 RNA
B9: no binding [6].

B10: P1 stable Gly-tRNA analogue, 2' isomer (structured_RNA)
RNA: B8 RNA
modifications: 2'-(1,4-triazole-alkyne; nonadiyne) on terminal A; penultimate C is dC (pdCpA ligation)
In the case of B10, the Ki [4] is reported as 320 ± 10 nM.

B11: CHIM2 analogue (P1 with NP2 acceptor stem) (structured_RNA)
RNA: B8 RNA with A3G, A5G, U69C
modifications: 2'-triazole-nonadiyne on terminal A; penultimate C is dC
In the case of B11, the Ki [1] is reported as 1000 ± 160 nM.
